What was measured:
[1] = molecular target: T1, hMC3-R (human, UniProt P41968 1-323); test: competition with 125I-NDP-MSH, HEK 293 hMC3-R membranes, 1 µM peptide
T1 construct: whole, on cells; Assayed as membranes prepared from transfected HEK 293 cells; also called MC3 receptor; melanocortin-3 receptor

[2] = molecular target: T2, MC1-R (B16-F1 mouse melanoma cells) (mouse, UniProt Q01727 1-315); test: competition with 125I-NDP-MSH, B16-F1 membranes, 1 µM peptide
T2 construct: whole, on cells; Assayed as membranes prepared from B16-F1 mouse melanoma cells; also called MC1 receptor; melanocortin-1 receptor
T2 sequence (Q01727 whole entry): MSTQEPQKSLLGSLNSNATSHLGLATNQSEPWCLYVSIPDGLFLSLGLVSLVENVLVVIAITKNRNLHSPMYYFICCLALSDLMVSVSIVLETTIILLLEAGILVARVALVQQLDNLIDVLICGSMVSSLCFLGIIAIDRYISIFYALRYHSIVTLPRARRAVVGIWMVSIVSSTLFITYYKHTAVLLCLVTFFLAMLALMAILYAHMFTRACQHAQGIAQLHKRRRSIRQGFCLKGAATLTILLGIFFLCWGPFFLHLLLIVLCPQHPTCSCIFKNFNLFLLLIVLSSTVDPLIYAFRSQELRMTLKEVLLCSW

[3] = molecular target: T3, hMC4-R (human, UniProt P32245 1-332); test: competition with 125I-NDP-MSH, HEK 293 hMC4-R membranes, 1 µM peptide
T3 construct: whole, on cells; cAMP assay on whole transfected HEK-293 cells; also called MC4 receptor; melanocortin-4 receptor
T3 sequence (P32245 whole entry): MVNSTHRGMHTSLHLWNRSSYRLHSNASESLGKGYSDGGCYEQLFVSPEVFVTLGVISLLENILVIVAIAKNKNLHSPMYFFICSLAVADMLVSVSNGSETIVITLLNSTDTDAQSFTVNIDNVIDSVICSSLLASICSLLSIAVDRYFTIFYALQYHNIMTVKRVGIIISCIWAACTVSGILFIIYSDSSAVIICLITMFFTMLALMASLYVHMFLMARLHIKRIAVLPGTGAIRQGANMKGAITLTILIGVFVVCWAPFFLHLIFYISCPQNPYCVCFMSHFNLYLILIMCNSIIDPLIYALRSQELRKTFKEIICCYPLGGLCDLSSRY

[4] = molecular target: T4, hMC5-R (human, UniProt P33032 1-325); test: competition with 125I-NDP-MSH, HEK 293 hMC5-R membranes, 1 µM peptide
T4 construct: whole, on cells; Assayed as membranes prepared from transfected HEK 293 cells; also called MC5 receptor; melanocortin-5 receptor
T4 sequence (P33032 whole entry): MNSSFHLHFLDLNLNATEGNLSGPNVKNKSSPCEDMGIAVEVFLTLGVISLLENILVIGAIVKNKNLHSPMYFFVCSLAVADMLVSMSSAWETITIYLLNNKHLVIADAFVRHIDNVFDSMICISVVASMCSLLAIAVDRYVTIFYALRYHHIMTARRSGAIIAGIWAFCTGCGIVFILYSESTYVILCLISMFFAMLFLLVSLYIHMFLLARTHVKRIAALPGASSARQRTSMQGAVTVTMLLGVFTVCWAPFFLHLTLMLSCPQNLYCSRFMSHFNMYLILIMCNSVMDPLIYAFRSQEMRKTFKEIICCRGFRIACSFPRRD

[5] = molecular target: T1, hMC3-R; test: titrated competitive binding assay on receptor membranes
[6] = molecular target: T2, MC1-R (B16-F1 mouse melanoma cells); test: as above
[7] = molecular target: T3, hMC4-R; test: as above
[8] = molecular target: T4, hMC5-R; test: as above

T1 sequence (P41968 whole entry): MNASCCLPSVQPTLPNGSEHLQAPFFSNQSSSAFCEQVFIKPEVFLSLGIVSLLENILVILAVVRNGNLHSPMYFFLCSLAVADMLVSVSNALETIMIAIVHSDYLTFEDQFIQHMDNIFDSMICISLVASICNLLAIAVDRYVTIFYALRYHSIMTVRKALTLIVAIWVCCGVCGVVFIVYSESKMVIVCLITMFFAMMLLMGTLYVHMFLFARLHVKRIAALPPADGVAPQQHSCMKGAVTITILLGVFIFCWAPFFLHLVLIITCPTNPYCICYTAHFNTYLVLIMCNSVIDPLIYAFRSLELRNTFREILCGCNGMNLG

Percent Inhibition At 1 µM concentration [1]: 8%
Percent Inhibition At 1 µM concentration [2]: 86%
Percent Inhibition At 1 µM concentration [3]: 46%
Percent Inhibition At 1 µM concentration [4]: 17%
Ki [5]: 10.8 µM
Ki [6]: 0.0099 µM
Ki [7]: 742 µM
Ki [8]: 2.53 µM
B1: Ac-Nle-cyclo(-Asp-His-D-Phe-Lys-Trp-Lys)-OH (peptide)
peptide: XDHFKWK
modifications: N-terminal acetyl; Nle at 1 (X); D-Phe at 4; cyclo (lactam) between side chains of Asp 2 and Lys 7; C-terminal free acid (-OH)
notes: Synthetic cyclic heptapeptide; X = norleucine; also called Ac-Nle-cyclo( -Asp-His-D-Phe-Lys-Trp-Lsy)-OH
